The target in data set [1] is T1, dPPR10-C2 (synthetic construct (designed consensus …, Q96C;Q376C)).
T1 chain: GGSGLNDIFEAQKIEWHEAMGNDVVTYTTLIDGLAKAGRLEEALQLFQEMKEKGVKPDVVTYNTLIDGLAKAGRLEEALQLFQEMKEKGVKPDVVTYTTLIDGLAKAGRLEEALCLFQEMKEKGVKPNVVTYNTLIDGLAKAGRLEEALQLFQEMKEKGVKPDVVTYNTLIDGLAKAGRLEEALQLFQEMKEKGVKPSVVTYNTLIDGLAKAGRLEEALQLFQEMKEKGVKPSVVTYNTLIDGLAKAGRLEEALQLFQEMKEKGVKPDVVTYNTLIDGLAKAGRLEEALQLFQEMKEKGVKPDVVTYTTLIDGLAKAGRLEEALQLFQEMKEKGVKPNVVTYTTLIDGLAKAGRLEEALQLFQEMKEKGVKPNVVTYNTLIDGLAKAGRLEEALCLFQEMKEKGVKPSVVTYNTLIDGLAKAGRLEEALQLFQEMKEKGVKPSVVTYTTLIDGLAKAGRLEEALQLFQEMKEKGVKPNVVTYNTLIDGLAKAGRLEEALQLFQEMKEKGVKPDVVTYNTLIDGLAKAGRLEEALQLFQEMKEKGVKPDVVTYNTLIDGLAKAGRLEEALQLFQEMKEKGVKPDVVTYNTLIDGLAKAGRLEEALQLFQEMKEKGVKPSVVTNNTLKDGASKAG
Put plainly: smFRET; 1 uM RNA; rare transitions; SPR: 30 mM Tris pH 7.6, 40 mM KCl, 5 mM MgCl2, 0.5 mM DTT, 0.25 mM EDTA, 0.01% P20, 20 C; ensemble FRET and MST: 100 mM Tris-HCl pH 8.0, 100 mM KCl; smFRET buffer not in material. The note with it: protein: recombinant; tags: N-terminal Avi-tag, biotinylated; Cy3/AF647 maleimide on Cys for FRET.

Data set [2] has as its target T1, dPPR10-C2. Put plainly: smFRET; 1 uM RNA; SPR: 30 mM Tris pH 7.6, 40 mM KCl, 5 mM MgCl2, 0.5 mM DTT, 0.25 mM EDTA, 0.01% P20, 20 C; ensemble FRET and MST: 100 mM Tris-HCl pH 8.0, 100 mM KCl; smFRET buffer not in material. The note with it: protein: recombinant; tags: N-terminal Avi-tag, biotinylated; Cy3/AF647 maleimide on Cys for FRET.
Data set [3] deals with T2, dPPR10 (synthetic construct (designed consensus …)).
T2 chain: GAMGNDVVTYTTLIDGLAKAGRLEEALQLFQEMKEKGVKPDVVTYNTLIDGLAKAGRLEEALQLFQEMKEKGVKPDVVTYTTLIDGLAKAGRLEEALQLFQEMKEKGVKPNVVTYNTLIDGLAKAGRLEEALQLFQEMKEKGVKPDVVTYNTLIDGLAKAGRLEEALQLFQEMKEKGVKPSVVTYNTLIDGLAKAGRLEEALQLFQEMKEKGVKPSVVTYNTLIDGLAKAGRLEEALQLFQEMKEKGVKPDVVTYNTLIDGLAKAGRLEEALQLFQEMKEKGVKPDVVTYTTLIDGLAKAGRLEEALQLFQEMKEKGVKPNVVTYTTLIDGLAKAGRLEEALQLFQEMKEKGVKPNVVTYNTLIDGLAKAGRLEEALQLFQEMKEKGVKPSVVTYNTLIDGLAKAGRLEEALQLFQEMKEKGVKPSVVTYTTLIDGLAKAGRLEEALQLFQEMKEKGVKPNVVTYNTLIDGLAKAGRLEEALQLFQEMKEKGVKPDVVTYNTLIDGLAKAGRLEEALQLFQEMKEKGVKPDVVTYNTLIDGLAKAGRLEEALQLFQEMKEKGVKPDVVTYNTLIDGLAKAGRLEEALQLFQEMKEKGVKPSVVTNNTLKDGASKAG
Put plainly: MST; Results value; Fig S4D legend gives 9.7 nM; SPR: 30 mM Tris pH 7.6, 40 mM KCl, 5 mM MgCl2, 0.5 mM DTT, 0.25 mM EDTA, 0.01% P20, 20 C; ensemble FRET and MST: 100 mM Tris-HCl pH 8.0, 100 mM KCl; smFRET buffer not in material. As to conditions: protein: recombinant; tags: Trx-His6-TEV (pETM20) cleaved; GAM remnant; label: 5' 6-FAM (FITC in Results).

The target in data set [4] is T2, dPPR10. Put plainly: MST; Fig S4D legend value, conflicts with 4 nM in text; legend says labelled dPPR10; SPR: 30 mM Tris pH 7.6, 40 mM KCl, 5 mM MgCl2, 0.5 mM DTT, 0.25 mM EDTA, 0.01% P20, 20 C; ensemble FRET and MST: 100 mM Tris-HCl pH 8.0, 100 mM KCl; smFRET buffer not in material. The note with it: protein: recombinant; tags: Trx-His6-TEV (pETM20) cleaved; GAM remnant; label: 5' 6-FAM (FITC in Results).

Data set [5] concerns the target T1, dPPR10-C2. Put plainly: competition; 100-fold excess over RNAcognate; smFRET; SPR: 30 mM Tris pH 7.6, 40 mM KCl, 5 mM MgCl2, 0.5 mM DTT, 0.25 mM EDTA, 0.01% P20, 20 C; ensemble FRET and MST: 100 mM Tris-HCl pH 8.0, 100 mM KCl; smFRET buffer not in material. As to conditions: protein: recombinant; tags: N-terminal Avi-tag, biotinylated; Cy3/AF647 maleimide on Cys for FRET.

The target in data set [6] is T1, dPPR10-C2. Put plainly: ensemble FRET; SPR: 30 mM Tris pH 7.6, 40 mM KCl, 5 mM MgCl2, 0.5 mM DTT, 0.25 mM EDTA, 0.01% P20, 20 C; ensemble FRET and MST: 100 mM Tris-HCl pH 8.0, 100 mM KCl; smFRET buffer not in material. As to conditions: protein: recombinant; tags: N-terminal Avi-tag, biotinylated; Cy3/AF647 maleimide on Cys for FRET.
For data set [7], the target named is T1, dPPR10-C2. Put plainly: smFRET; 1 uM RNA; mean binding time 41.3 s vs 10.6 s cognate; SPR: 30 mM Tris pH 7.6, 40 mM KCl, 5 mM MgCl2, 0.5 mM DTT, 0.25 mM EDTA, 0.01% P20, 20 C; ensemble FRET and MST: 100 mM Tris-HCl pH 8.0, 100 mM KCl; smFRET buffer not in material. As to conditions: protein: recombinant; tags: N-terminal Avi-tag, biotinylated; Cy3/AF647 maleimide on Cys for FRET; 5' extension, predicted secondary structure.

Data set [8] has as its target T1, dPPR10-C2. Put plainly: smFRET; 1 uM RNA; mean binding time 30.0 s; SPR: 30 mM Tris pH 7.6, 40 mM KCl, 5 mM MgCl2, 0.5 mM DTT, 0.25 mM EDTA, 0.01% P20, 20 C; ensemble FRET and MST: 100 mM Tris-HCl pH 8.0, 100 mM KCl; smFRET buffer not in material. As to conditions: protein: recombinant; tags: N-terminal Avi-tag, biotinylated; Cy3/AF647 maleimide on Cys for FRET; no predicted secondary structure.

The target of data set [9] is T1, dPPR10-C2. In words: smFRET; 1 uM RNA; mean binding time 43.4 s; SPR: 30 mM Tris pH 7.6, 40 mM KCl, 5 mM MgCl2, 0.5 mM DTT, 0.25 mM EDTA, 0.01% P20, 20 C; ensemble FRET and MST: 100 mM Tris-HCl pH 8.0, 100 mM KCl; smFRET buffer not in material. The note with it: protein: recombinant; tags: N-terminal Avi-tag, biotinylated; Cy3/AF647 maleimide on Cys for FRET; 3' extension, predicted secondary structure.

The target of data set [10] is T2, dPPR10. Put plainly: MST; SPR: 30 mM Tris pH 7.6, 40 mM KCl, 5 mM MgCl2, 0.5 mM DTT, 0.25 mM EDTA, 0.01% P20, 20 C; ensemble FRET and MST: 100 mM Tris-HCl pH 8.0, 100 mM KCl; smFRET buffer not in material. As to conditions: protein: recombinant; tags: Trx-His6-TEV (pETM20) cleaved; GAM remnant; label: 5' 6-FAM.

As to UGUAUCCUAUACCAUUUCU (ssRNA) [RNA U9A,A10U], the binding result with dPPR10-C2 [1] is given as “no binding”.
UGUAUCCUUA (ssRNA) [RNA1-10]: in the data set with dPPR10-C2 [2], the binding result was “no binding”.
As for UGUAUCCUUAACCAUUUCU (ssRNA) [RNAcognate 5'-FAM], the Kd (in general, the free concentration of one partner at which half of the binding sites on the other are occupied at equilibrium, for simple one-to-one binding) in the data set with dPPR10 [3] is 4 nM; with dPPR10 [4], 9.7 ± 1.8 nM.
For the molecule UCACAGGAACCGGCAAAGU (ssRNA) [RNAanti-cognate], the binding result with dPPR10-C2 [5] was “no binding”.
As to UGUAUCCUUAACCAUUUCU (ssRNA) [RNAcognate], in the data set with dPPR10-C2 [6], the Kd worked out at 1.2 ± 0.2 nM.
In the case of CACAGGAACCGGCAAAGUGUAUCCUUAACCAUUUCU (ssRNA) [RNA5'-OH], in the data set with dPPR10-C2 [7], the binding result is on record as “binds”.

B1: RNAdual-OH (delta2) (ssRNA)
RNA: CAUUCCAACCCCCAAAGUGUAUCCUUAACCAUUUCUCUCACCAACCCCCAAAG
Take B1: the binding result in the data set with dPPR10-C2 [8] is listed as “binds”.
As for UGUAUCCUUAACCAUUUCUCACAGGAACCGGCAAAG (ssRNA) [RNA3'-OH], the binding result with dPPR10-C2 [9] is “binds”.
Turning to UGUAUCCUUAAC (ssRNA) [RNA1-12], the binding result in the data set with dPPR10-C2 [2] is “binds”.
Regarding CCAUUUCU (ssRNA) [RNA12-19], in the data set with dPPR10-C2 [2], the binding result is listed as “no binding”.
UCACAGGAACCGGCAAAGU (ssRNA) [RNAanti-cognate 5'-FAM]: the binding result with dPPR10 [10] was “no binding”.

The values are drawn from publication PMC11662938, “Single-molecule visualization of sequence-specific RNA binding by a designer PPR protein”.
